Article doi:10.1101/2025.07.25.666786

Key:
[1] = biological target: CrAPE1 C128S mutant, recombinant soluble region of the DUF2854 of APE1 from Chlamydomonas reinhardtii (Chlamydomonas reinhardtii); test: SEC-MALS
[2] = biological target: CrAPE1 C128S mutant, recombinant soluble region of the DUF2854 of APE1 from Chlamydomonas reinhardtii (Chlamydomonas reinhardtii); test: MST
[3] = biological target: Plastid Copper Chaperone 1 (PCC1) from Chlamydomonas reinhardtii, recombinant, produced in the presence of Cu (Chlamydomonas reinhardtii)

“CrAPE1 C128S mutant, recombinant soluble region of the DUF2854 of APE1 from Chlamydomonas reinhardtii (domain or fragment)” gave a stoichiometry N [1] of 2.
“Plastid Copper Chaperone 1 (PCC1) from Chlamydomonas reinhardtii, recombinant, produced in the presence of Cu (natural protein)” was tested, and the Kd [2] was 38.6 nM and the stoichiometry N [3] was 2.
